These results are taken from PMC9266650.

Assay [1] deals with T148-ADP-ribosylated-actin (100% TccC3-ADP-ribosylated actin) (not stated (purified from rabbit or chicken skeletal muscle)) (UniProt P68135). Briefly: fluorescence polarisation.
Assay [2] addresses Skeletal actin, unmodified (0% ADPR-actin control) (not stated (purified from rabbit or chicken skeletal muscle)) (UniProt P68135).

As to Thymosin-β4 (peptide), the fold reduction of affinity against unmodified actin in assay [1] amounted to 6.4 fold. The substance further displayed a time at which 50% of actin is polymerized (t1/2); 2.5 µM pyrene-labeled (5%) G-actin, 0% modified, with 2.5 µM TMSB4 in assay [2] of 2.04 h.
